From publication doi:10.1101/323055 come the findings set out here.

This experiment addresses TmFtsH_(184,513), double Cys variant of His6-(Δtm)TmFtsH(147–610) (Thermotoga maritima) (UniProt Q9WZ49).

For orientation: Kd means the constant that tells how readily two partners part at equilibrium. “TmFtsH_(184,513), double Cys variant of His6-(Δtm)TmFtsH(147–610) (from UniProt Q9WZ49 147-610) (enzyme)” yielded a Kd of 400 nM.
